Data: article PMC7473855

Target: Ty1 nanobody, biotinylated on the C-terminus (alpaca)
Assay: BLI; comparative binding test; biotinylated nanobody on streptavidin (SAX) biosensors at about 0.7 nm, dipped into monomeric RBD at 550 nM; 2xPBS with 0.05% Tween-20; Octet RED

Sequence of Ty1 nanobody, biotinylated on the C-terminus (alpaca) (VHH, as listed by the source): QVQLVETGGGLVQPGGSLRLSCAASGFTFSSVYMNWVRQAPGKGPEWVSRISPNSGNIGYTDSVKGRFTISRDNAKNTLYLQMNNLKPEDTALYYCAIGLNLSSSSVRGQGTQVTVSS

## SARS-CoV-2 spike receptor-binding domain (RBD) (from UniProt P0DTC2 319-541) (domain or fragment)
  BLI response at 550 nM RBD: 1.5 nm
